Reference: article PMC5037986

Biological target: recombinant mature human CD73 (soluble CD73, GPI anchor signal peptide replaced by a C-terminal 6x-histidine tag) (human)
Assay: SEC-MALS

- stoichiometry N: 2
Substance: recombinant mature human CD73 (soluble CD73, GPI anchor signal peptide replaced by a C-terminal 6x-histidine tag) (enzyme)
